This is an account of results in patent publication US20200079833A1 (AstraZeneca / MedImmune, published 2020).

Starred links: 1 amine or outer side, 2 acyl side, 3 side chain; linkers in the order of their positions; H or OH if unused. Non-standard residues stand in square brackets, D forms with d. Groups on a side chain read outwards from the residue. Primed or numbered codes have the meaning given here. No end group written: not given here. *: point of attachment. γGlu = O=C(O)[C@H](CCC(=O)[*:2])N[*:1]; αMeF = C[C@](N)(Cc1ccccc1)C(=O)O; αMeK = C[C@](N)(CCCCN)C(=O)O; Lauroyl = CCCCCCCCCCCC(=O)*; αMeS = C[C@](N)(CO)C(=O)O; PEG2′ = not defined here; Aib = CC(C)(N)C(=O)O

Assay in all cases: cell-based or functional assay
Assay [1] concerns the target glucagon receptor (GCGR), primary cAMP assay cell line (human, UniProt P47871 26-477).
The target of assay [2] is T1, glucose-dependent insulinotropic peptide (gastric inhibitory polypeptide) receptor (GIPR), primary cAMP assay … (human, UniProt P48546 22-466).
T1 sequence (looked up): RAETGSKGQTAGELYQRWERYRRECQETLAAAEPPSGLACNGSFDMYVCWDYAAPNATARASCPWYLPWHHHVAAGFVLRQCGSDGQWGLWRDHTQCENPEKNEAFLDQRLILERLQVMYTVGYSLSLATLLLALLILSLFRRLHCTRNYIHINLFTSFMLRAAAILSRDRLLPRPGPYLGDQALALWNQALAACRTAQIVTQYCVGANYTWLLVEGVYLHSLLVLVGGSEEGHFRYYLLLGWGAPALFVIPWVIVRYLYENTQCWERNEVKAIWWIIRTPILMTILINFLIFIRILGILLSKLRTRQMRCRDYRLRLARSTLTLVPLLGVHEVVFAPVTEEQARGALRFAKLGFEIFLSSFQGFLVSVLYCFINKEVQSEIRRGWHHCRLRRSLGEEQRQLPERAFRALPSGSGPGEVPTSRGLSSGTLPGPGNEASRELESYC

For assay [3], the target named is GLP-1 receptor (GLP-1R), primary cAMP assay cell line (human, UniProt P43220 24-463).

Sequence of glucagon receptor (GCGR), primary cAMP assay cell line (P47871 26-477): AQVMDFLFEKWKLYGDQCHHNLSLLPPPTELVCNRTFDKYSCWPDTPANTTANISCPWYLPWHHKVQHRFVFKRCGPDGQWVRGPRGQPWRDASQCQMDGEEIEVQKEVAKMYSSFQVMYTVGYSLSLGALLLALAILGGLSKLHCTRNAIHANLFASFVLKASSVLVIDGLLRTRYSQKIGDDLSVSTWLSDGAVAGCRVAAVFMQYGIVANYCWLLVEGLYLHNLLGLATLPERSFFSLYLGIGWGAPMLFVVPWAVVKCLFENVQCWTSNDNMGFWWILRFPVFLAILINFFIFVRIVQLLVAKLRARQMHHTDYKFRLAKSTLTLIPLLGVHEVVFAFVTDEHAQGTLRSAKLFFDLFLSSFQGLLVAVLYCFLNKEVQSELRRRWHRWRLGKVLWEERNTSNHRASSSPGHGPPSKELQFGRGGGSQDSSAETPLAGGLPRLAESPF

Regarding H[Aib]EGS[αMeF]TSDVSK([PEG2′-PEG2′-γGlu-Lauroyl])YLEGEK([PEG2′-PEG2′-γGlu-Lauroyl])A[αMeK]EFIAK([PEG2′-PEG2′-γGlu-Lauroyl])VVEGG-NH2 [SEQ ID NO: 461], the “cAMP Primary assay EC50, n1” value came to 19.8 nM in assay [1], 19.8 nM in assay [2] and 0.0745 nM in assay [3]. Besides, the “cAMP Primary assay EC50, n2” value in assay [1] stood at 19.8 nM; in assay [2], 19.8 nM; in assay [3], 0.145 nM. Also, the “cAMP Primary assay EC50, Mean pM GLP-1R” value in assay [3] came to 110 pM.
Turning to H[Aib]EGS[αMeF]TSDV[αMeS]SYK([PEG2′-PEG2′-γGlu-Lauroyl])EGEK([PEG2′-PEG2′-γGlu-Lauroyl])A[αMeK]EFIK([PEG2′-PEG2′-γGlu-Lauroyl])FVVEGG-NH2 [SEQ ID NO: 453], the “cAMP Primary assay EC50, n1” value is 19.5 nM in assay [1], 19.5 nM in assay [2] and 0.0629 nM in assay [3]. The “cAMP Primary assay EC50, n2” value in assay [1] came to 19.5 nM; in assay [2], 19.5 nM; in assay [3], 0.165 nM. The “cAMP Primary assay EC50, Mean pM GLP-1R” value in assay [3] amounted to 114 pM.
With H[Aib]EGS[αMeF]TSDV[αMeS]SYK([PEG2′-PEG2′-γGlu-Lauroyl])EGK([PEG2′-PEG2′-γGlu-Lauroyl])AA[αMeK]EFIK([PEG2′-PEG2′-γGlu-Lauroyl])FVVEGG-NH2 [SEQ ID NO: 452], in assay [1], the “cAMP Primary assay EC50, n1” value came out at 19.5 nM and the “cAMP Primary assay EC50, n2” value came to 19.7 nM. Further, in assay [2], the “cAMP Primary assay EC50, n1” value was determined as 19.5 nM and the “cAMP Primary assay EC50, n2” value came to 19.7 nM. In addition, in assay [3], the “cAMP Primary assay EC50, Mean pM GLP-1R” value came to 80.9 pM; the “cAMP Primary assay EC50, n1” value was 0.0857 nM; the “cAMP Primary assay EC50, n2” value came to 0.0761 nM.
Take H[Aib]EGS[αMeF]TSDK([PEG2′-PEG2′-γGlu-Lauroyl])SSYLEK([PEG2′-PEG2′-γGlu-Lauroyl])EAA[αMeK]EFIAFK([PEG2′-PEG2′-γGlu-Lauroyl])VEGG-NH2 [SEQ ID NO: 471]: the “cAMP Primary assay EC50, n1” value worked out at 19.6 nM in assay [1], 19.6 nM in assay [2] and 0.277 nM in assay [3]. In addition, the “cAMP Primary assay EC50, n2” value in assay [1] is 19.6 nM; in assay [2], 19.6 nM; in assay [3], 0.47 nM. Also, the “cAMP Primary assay EC50, Mean pM GLP-1R” value in assay [3] was determined as 374 pM.
Turning to H[Aib]EGS[αMeF]TSDV[αMeS]SK([PEG2′-PEG2′-γGlu-Lauroyl])LEK([PEG2′-PEG2′-γGlu-Lauroyl])EAA[αMeK]EFIAK([PEG2′-PEG2′-γGlu-Lauroyl])VVEGG-NH2 [SEQ ID NO: 463], the figures for the “cAMP Primary assay EC50, n1” value in assay [1], in assay [2] and in assay [3] were 20 nM, 20 nM and 0.0695 nM, respectively. For the same molecule, the “cAMP Primary assay EC50, n2” value in assay [1] came to 20 nM; in assay [2], 20 nM; in assay [3], 0.0944 nM. In assay [3], the “cAMP Primary assay EC50, Mean pM GLP-1R” value was 82 pM.
Turning to H[Aib]EGS[αMeF]TSDV[αMeS]SK([PEG2′-PEG2′-γGlu-Lauroyl])LEGEK([PEG2′-PEG2′-γGlu-Lauroyl])A[αMeK]EFIAK([PEG2′-PEG2′-γGlu-Lauroyl])VVEGG-NH2 [SEQ ID NO: 465], in assay [1], the “cAMP Primary assay EC50, n1” value was found to be 20 nM and the “cAMP Primary assay EC50, n2” value was 20 nM. Moreover, in assay [2], the “cAMP Primary assay EC50, n1” value was 20 nM and the “cAMP Primary assay EC50, n2” value was 20 nM. In assay [3], the “cAMP Primary assay EC50, Mean pM GLP-1R” value stood at 117 pM; the “cAMP Primary assay EC50, n1” value was found to be 0.101 nM; the “cAMP Primary assay EC50, n2” value worked out at 0.133 nM.
As for H[Aib]EGS[αMeF]TSDK([PEG2′-PEG2′-γGlu-Lauroyl])SSYLEGEK([PEG2′-PEG2′-γGlu-Lauroyl])A[αMeK]EFIAK([PEG2′-PEG2′-γGlu-Lauroyl])VVEGG-NH2 [SEQ ID NO: 457], in assay [1], the “cAMP Primary assay EC50, n1” value was found to be 19.8 nM and the “cAMP Primary assay EC50, n2” value amounted to 19.8 nM. In assay [2], the “cAMP Primary assay EC50, n1” value was 19.8 nM and the “cAMP Primary assay EC50, n2” value was found to be 19.8 nM. In assay [3], the “cAMP Primary assay EC50, Mean pM GLP-1R” value amounted to 142 pM; the “cAMP Primary assay EC50, n1” value was found to be 0.127 nM; the “cAMP Primary assay EC50, n2” value amounted to 0.156 nM.
H[Aib]EGS[αMeF]TSDV[αMeS]SYK([PEG2′-PEG2′-γGlu-Lauroyl])EGK([PEG2′-PEG2′-γGlu-Lauroyl])AA[αMeK]EFIAK([PEG2′-PEG2′-γGlu-Lauroyl])VVEGG-NH2 [SEQ ID NO: 468]: the “cAMP Primary assay EC50, n1” value in assay [1] came to 20 nM; in assay [2] it was 20 nM; in assay [3] it was 0.0624 nM. For the same molecule, the entries for the “cAMP Primary assay EC50, n2” value in assay [1], in assay [2] and in assay [3] were 20 nM, 20 nM and 0.0845 nM, respectively. Further, the “cAMP Primary assay EC50, Mean pM GLP-1R” value in assay [3] was 73.5 pM.
H[Aib]EGS[αMeF]TSDK([PEG2′-PEG2′-γGlu-Lauroyl])SSYLEGK([PEG2′-PEG2′-γGlu-Lauroyl])AA[αMeK]EFIAK([PEG2′-PEG2′-γGlu-Lauroyl])VVEGG-NH2 [SEQ ID NO: 456]: in assay [1], the “cAMP Primary assay EC50, n1” value was 10 nM and the “cAMP Primary assay EC50, n2” value turned out to be 20 nM. Moreover, in assay [2], the “cAMP Primary assay EC50, n1” value was 20 nM and the “cAMP Primary assay EC50, n2” value was found to be 20 nM. Further, in assay [3], the “cAMP Primary assay EC50, Mean pM GLP-1R” value was 170 pM; the “cAMP Primary assay EC50, n1” value worked out at 0.116 nM; the “cAMP Primary assay EC50, n2” value was 0.224 nM.
As to H[Aib]EGS[αMeF]TSDVSK([PEG2′-PEG2′-γGlu-Lauroyl])YLEK([PEG2′-PEG2′-γGlu-Lauroyl])EAA[αMeK]EFIAK([PEG2′-PEG2′-γGlu-Lauroyl])VVEGG-NH2 [SEQ ID NO: 459], in assay [1], the “cAMP Primary assay EC50, n1” value came to 19.7 nM and the “cAMP Primary assay EC50, n2” value is 19.7 nM. Also, in assay [2], the “cAMP Primary assay EC50, n1” value stood at 19.7 nM and the “cAMP Primary assay EC50, n2” value came to 19.7 nM. In assay [3], the “cAMP Primary assay EC50, Mean pM GLP-1R” value was 100 pM; the “cAMP Primary assay EC50, n1” value worked out at 0.0895 nM; the “cAMP Primary assay EC50, n2” value was found to be 0.111 nM.
Consider H[Aib]EGS[αMeF]TSDVSK([PEG2′-PEG2′-γGlu-Lauroyl])YLEGK([PEG2′-PEG2′-γGlu-Lauroyl])AA[αMeK]EFIAK([PEG2′-PEG2′-γGlu-Lauroyl])VVEGG-NH2 [SEQ ID NO: 460], for which, in assay [1], the “cAMP Primary assay EC50, n1” value was found to be 20 nM and the “cAMP Primary assay EC50, n2” value was 20 nM. In assay [2], the “cAMP Primary assay EC50, n1” value was found to be 20 nM and the “cAMP Primary assay EC50, n2” value stood at 20 nM. In addition, in assay [3], the “cAMP Primary assay EC50, Mean pM GLP-1R” value was found to be 78.1 pM; the “cAMP Primary assay EC50, n1” value came out at 0.0674 nM; the “cAMP Primary assay EC50, n2” value is 0.0888 nM.
